Results: article PMC314469, “Protein Interaction Networks by Proteome Peptide Scanning” (PLoS Biology, 2004)

T1: amphyphisin SH3 (AMPH_HUMAN), P49418
T1 chain: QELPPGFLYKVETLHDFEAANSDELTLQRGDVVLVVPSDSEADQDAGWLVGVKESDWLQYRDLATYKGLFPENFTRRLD


Columns and labels:
[1] = biological target: endophilin SH3 (SH3G2_HUMAN), Q99962; assay: SPOT array
[2] = biological target: T1, amphyphisin SH3 (AMPH_HUMAN), P49418; assay: SPOT array

| Binder | normalised SPOT signal, Boehringer light units (BLU); mean over the file's lines of this peptide [1] | normalised SPOT signal, Boehringer light units (BLU); mean over the file's lines of this peptide [2] |
| --- | --- | --- |
| PRPLPPRPPAAQPR [P58840 142-156] | 7560 | 2770 |
| PRKAPRRPGPGMSG [Q92611 83-96] | 221 | 46.8 |
| PRPGPSRPPPVPAP [Q9Y2G0 18-32] | 1900 | 137 |
| PRKYPNRPSKTPLH [Q06889 258-271] | 51.5 | 79.9 |
| PRANPRRPPRAIVP [Q8WYW1 101-114] | 94.1 | 373 |
| ASPRLRRPKSPKLP [Q96DR7 104-117] | 35 | 110 |
| PRPSPARPKKSEES [O94836 564-577] | 265 | 101 |
| PRPTPRRPRPRLAR [Q9GZW5 261-274] | 1950 | 928 |
| PRRPPPRPPSRLSM [Q9BVH8 778-792] | 32000 | 27600 |
| PRKLPSRPPPHYPG [O75923 185-199] | 2340 | 640 |
| PRRGPPRPPGLPYP [AAH31882 46-60] | 7980 | 1100 |
| PRAVPARPPTRPRF [Q8TE87 150-164] | 17600 | 6470 |
| ASLFPKRPALEPVR [Q9Y2X7 686-699] | 926 | 41.1 |
| PRRRPGRPRKLPRL [Q9H4Z2 347-360] | 96 | 32.5 |
| PRQPPSRPPRRPPW [Q99785 93-107] | 8300 | 6780 |
| PQSSLRRPDPGRLP [O95613 3094-3107] | 37.8 | 39.9 |

| Binder | normalised SPOT signal, Boehringer light units (BLU); mean over the file's lines of this peptide [1] | normalised SPOT signal, Boehringer light units (BLU); mean over the file's lines of this peptide [2] |
| --- | --- | --- |
| PRPRPRRPRQLTRA [Q9HAM8 17-30] | 206 | 72.2 |
| PRAPLHRPQKPREG [Q9P1Y6 1426-1439] | 194 | 98.2 |
| PRSVFLRPQRNLES [Q9Y2L9 614-627] | 211 | 3830 |
| ASNQPKRPPAAPEN [P48634 118-131] | 51 | 38.1 |
| PRGVLPRPSRVLVL [Q9NYA1 7-20] | 508 | 1850 |
| PRPLPPRPPAAQPP [P10323 331-345] | 3120 | 1540 |
| PREGPGRPPLDGRD [Q9H8B2 127-141] | 58.8 | 47.3 |
| PRKYPNRPSKTPVH [P11161 323-336] | 57.5 | 109 |
| PRLRPMRPPPPPPA [Q9NXX8 675-689] | 4660 | 1860 |
| PREPPRRPAFLPVG [Q13387 310-323] | 1100 | 32.1 |
| PRAWPRRPRRDYSI [O43385 549-562] | 221 | 1550 |
| PRPPPGKPPTRPGV [O94932 475-489] | 1540 | 225 |
| PREFPFKPPSIYMI [Q96T84 67-81] | 519 | 32.3 |
| PRQLLTRPHKAEDF [Q99973 2038-2051] | 198 | 104 |
| PQTELRRPGQLIDE [Q9H1Y1 836-849] | 44.1 | 27.5 |
